Measured values published in patent US6972324 (Boehringer Ingelheim, dated 2005).
Numbering of substitutions follows the chain as printed. Values belong to the molecule of their own block, whether it stands above or below them.

Experiments:
[1] = target: CD44v6 on human tumour cells (human) (UniProt P16070); test: immunoreactivity assay, 131I-labelled IgG on fixed UM-SCC-11B cells, linear extrapolation to infinite antigen excess, experiment 1
[2] = target: glutathione-S-transferase fusion protein containing domains v3-v10 of human CD44 (human) (UniProt P16070); test: SPR (BIAcore 2000), GST/CD44v3-v10 immobilized on CM5 chip
[3] = target: glutathione-S-transferase fusion protein containing domains v3-v10 of human CD44 (human) (UniProt P16070); test: SPR (BIAcore 2000), GST/CD44v3-v10 immobilized on CM5 chip, MAb injected at 8-67 nM
[4] = target: CD44v6 on human tumour cells (human) (UniProt P16070); test: immunoreactivity assay, 131I-labelled IgG on glutaraldehyde-fixed UM-SCC-11B cells, experiment 1
[5] = target: CD44v6 on human tumour cells (human) (UniProt P16070); test: immunoreactivity assay, 186Re-MAG3-labelled MAb on fixed UM-SCC-11B cells
[6] = target: CD44v6 on human tumour cells (human) (UniProt P16070); test: immunoreactivity assay, 125I-labelled IgG on glutaraldehyde-fixed UM-SCC-11B cells, experiment 2
[7] = target: CD44v6 on human tumour cells (human) (UniProt P16070); test: immunoreactivity assay, 125I-labelled IgG on fixed UM-SCC-11B cells, linear extrapolation to infinite antigen excess, experiment 2
[8] = target: CD44v6 on human tumour cells (human) (UniProt P16070); test: competitive cell ELISA on fixed A431 cells against mMAb BIWA 1; IC50 relative to BIWA 2
[9] = target: CD44v6 on human tumour cells (human) (UniProt P16070); test: immunoreactivity assay of clinical 99mTc-/186Re-MAG3-labelled BIWA 4 batches on fixed UM-SCC 11B cells
[10] = target: CD44v6 on human tumour cells (human) (UniProt P16070); test: immunoreactivity assay, 131I-labelled IgG on glutaraldehyde-fixed UM-SCC-11B cells, experiment 2
[11] = target: CD44v6 on human tumour cells (human) (UniProt P16070); test: immunoreactivity assay, 131I-labelled IgG on glutaraldehyde-fixed UM-SCC-11B cells, experiment 3
[12] = target: CD44v6 on human tumour cells (human) (UniProt P16070); test: competitive cell ELISA on fixed A431 cells; inhibition of binding of mMAb BIWA 1, detected with peroxidase-conjugated anti-mouse Fc; unit taken from the concentration axis
[13] = target: T1, glutathione-S-transferase fusion protein containing domains v3-v10 of human CD44 (human, UniProt P16070 267-604); test: SPR (BIAcore 2000), GST/CD44v3-v10 immobilized on CM5 chip, MAb injected at 8-67 nM
T1 construct: also called GST/CD44v3-v10; recombinant antigen; not shown: glutathione-S-transferase (GST) fusion partner
T1 sequence (looked up): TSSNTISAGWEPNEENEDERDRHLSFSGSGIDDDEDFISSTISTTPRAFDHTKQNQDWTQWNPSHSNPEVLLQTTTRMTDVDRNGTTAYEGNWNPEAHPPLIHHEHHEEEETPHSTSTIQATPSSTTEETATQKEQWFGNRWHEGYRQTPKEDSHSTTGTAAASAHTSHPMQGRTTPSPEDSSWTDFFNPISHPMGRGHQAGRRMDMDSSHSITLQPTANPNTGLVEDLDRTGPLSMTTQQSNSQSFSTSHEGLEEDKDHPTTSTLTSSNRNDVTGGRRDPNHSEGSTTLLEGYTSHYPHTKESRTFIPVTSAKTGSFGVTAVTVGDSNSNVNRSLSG
Procedure: (§1) Evaluation of antibody affinity. Measurement of kinetic and affinity constants using recombinant antigen was performed on a BIAcore 2000 system (BIAcore AB, Uppsala, Sweden). A glutathione-S-transferase fusion protein containing domains v3–v10 of human CD44 (GST/CD44v3–v10; 20 μg/ml) was immobilized on a CM5 sensor chip by the amine coupling method according to the manufacturer's instructions, using 10 mM sodium acetate pH 5.0 as coupling buffer. 35 μl of MAb at various concentrations (8–67 nM) in HBS (10 mM HEPES, pH 7.4, 150 mM NaCl, 3.4 mM EDTA, 0.05% BLAcore surfactant P20) were injected over the antigen-coated surface at a flow rate of 5 μL/min. Dissociation of the MAb was assessed for 5 minutes in buffer flow (HBS). Between two analyses, the surface of the chip was regenerated with a single pulse of 15 μl 30 mM HCl. Analysis of the data and calculation of the kinetic constants were performed with BIAcore's BIAevaluation software, version 2.1. Association rates (k_a), dissociation rates (k_d), and dissociation constants (K_d) were assessed for all antibodies.
(§2) In vitro binding characteristics of the CD44v6specific MAbs. The binding affinities of the five MAbs were analyzed using recombinant antigen as well as human tumor cell lines. Kinetic and affinity constants were evaluated by surface plasmon resonance using GST/CD44v3–v10 as immobilized antigen.

[14] = target: CD44v6 on human tumour cells (human) (UniProt P16070); test: immunoreactivity assay, 131I-labelled IgG on fixed UM-SCC-11B cells, linear extrapolation to infinite antigen excess, experiment 3
[15] = target: CD44v6 on human tumour cells (human) (UniProt P16070); test: immunoreactivity assay, 131I-labelled IgG on fixed UM-SCC-11B cells, linear extrapolation to infinite antigen excess, experiment 2
[16] = target: T1, glutathione-S-transferase fusion …; test: ratio of affinities (SPR on GST/CD44v3-v10, Table 1)
[17] = target: T1, glutathione-S-transferase fusion …; test: SPR (BIAcore 2000), GST/CD44v3-v10 immobilized on CM5 chip
Procedure: as §1, §2

[18] = target: CD44v6 on human tumour cells (human) (UniProt P16070); test: immunoreactivity assay, 125I-labelled IgG on glutaraldehyde-fixed UM-SCC-11B cells, experiment 3
[19] = target: CD44v6 on human tumour cells (human) (UniProt P16070); test: immunoreactivity assay, 125I-labelled IgG on fixed UM-SCC-11B cells, linear extrapolation to infinite antigen excess, experiment 3

Binding Extrapolated (%) (immunoreactive fraction) [1]: 87.4% | Kd relative to murine BIWA 1 [2]: 35 fold | Kd [3]: 11 nM | koff [3]: 0.00017 s⁻¹ | kon [3]: 15000 M⁻¹ s⁻¹ | Binding to 5 × 10^6 cells (%) [4]: 59.7% | immunoreactive fraction [5]: 75%
Molecule: mMAb U36 (antibody)

Binding to 5 × 10^6 cells (%) [6]: 80.5% | Kd relative to murine BIWA 1 [2]: 0.7 fold | Kd [3]: 0.24 nM | koff [3]: 4.1e-05 s⁻¹ | kon [3]: 170000 M⁻¹ s⁻¹ | Binding Extrapolated (%) (immunoreactive fraction) [7]: 79.9% | immunoreactive fraction [5]: 75% | relative IC50 values [8]: 1
Molecule: cMAb BIWA 2 (antibody)

immunoreactive fraction [9]: 80% | Binding to 5 × 10^6 cells (%) [10]: 77.4% | Binding to 5 × 10^6 cells (%) [11]: 77.3% | IC50 [12]: 8.01 µg/mL | Kd [13]: 3.4 nM | koff [13]: 0.00022 s⁻¹ | kon [13]: 65000 M⁻¹ s⁻¹ | Binding Extrapolated (%) (immunoreactive fraction) [14]: 74.5% | immunoreactive fraction [5]: 75% | Binding Extrapolated (%) (immunoreactive fraction) [15]: 82.3% | relative IC50 values [8]: 44 | fold lower affinity than cMAb BIWA 2 [16]: 14 fold | fold lower affinity than hMAb BIWA 8 [16]: 4 fold | Kd relative to murine BIWA 1 [17]: 10.5 fold
B1: hMAb BIWA 4 (antibody, human IgG1, kappa, V domains shown)
VH: EVQLVESGGGLVKPGGSLRLSCAASGFTFSSYDMSWVRQAPGKGLEWVSTISSGGSYTYYLDSIKGRFTISRDNAKNSLYLQMNSLRAEDTAVYYCARQGLDYWGRGTLVTVSS
VL: EIVLTQSPATLSLSPGERATLSCSASSSINYIYWYQQKPGQAPRLLIYLTSNLASGVPARFSGSGSGTDFTLTISSLEPEDFAVYYCLQWSSNPLTFGGGTKVEIKR
notes: CDR-grafted humanised version of BIWA 1 without murine framework residues; human IgG1/kappa; in the clinical study as 99mTc- or 186Re-MAG3 conjugate; also called Humanized BIWA 4; bivatuzumab

IC50 [12]: 0.335 µg/mL | Kd [13]: 0.84 nM | koff [13]: 6.3e-05 s⁻¹ | kon [13]: 75000 M⁻¹ s⁻¹ | Binding to 5 × 10^6 cells (%) [18]: 91.8% | Binding Extrapolated (%) (immunoreactive fraction) [19]: 92.1% | immunoreactive fraction [5]: 75% | relative IC50 values [8]: 2 | Kd relative to murine BIWA 1 [17]: 2.6 fold
B2: hMAb BIWA 8 (antibody, human IgG1, kappa, V domains shown)
VH: B1 VH
VL: B1 VL with Y35L, L45I
notes: CDR-grafted humanised version of BIWA 1 with two murine residues in light chain framework 2; human IgG1/kappa; also called Humanized BIWA 8
